The results in this text go back to PMC7610252 (Biochemistry, 2017).

Sequences and labels used below:
B1: FixB subunit of the FixABCX complex from Azotobacter vinelandii (natural protein, UniProt P53574 2-360, looked up)
chain: SEQPKKPTKKKVELDPRFVDVRHVWVCIESERGVVHPVSWELLGEGRKSVDALGGELYGVVICGPGERGKEICGEPVQHGADKAYLLQHEILRDYRNEPYTKALTDLVTATQPEILMLGATTLGRDLAGSVATTLGTGLVADCTELVIDTETRNLASTRPTFDGSLLCKPSSAQRHRPQMATVRPRMAMPEPDASRSGEIIEVPFSMIETDIITKVLEFIPDDTRDKPNLPFADIIVAGGRGLRNQENFQLVWDLAKVLGAEVGASRPIVQAGWAELDRQVGQSGKTVRPKLYIAAGISGAIQHRVGMDGADVIIAINTDPNAPIFDFAHYGIVGNAITVLPALTEAFKARLGQLKKAG
B2: FixC subunit of the FixABCX complex from Azotobacter vinelandii (natural protein, UniProt P53572 2-427, looked up)
chain: AERFDVIVVGAGMAGNAAAYTLAKGGLKVLQIERGETPGSKNVQGAILYADAIEKIIPDFRDDAPLERHLIEQRVWVMDDASYGYHYRSEDFNKPPYNRYTIIRVHFDQWFNKKAREAGVLTICETRHDLLIEGGKVVGVRTDRQGGEVRADAVILADGVNSRLAVKAGFSRDQPENWALAVKEIHFLPQETMEARFNIGEEEAAIEMAGKIDAGMMGTGFLYTNKESITLGVGCMLSDFKQQKISPYELLDRMKTHPSIAPLIAGSDMKEYAAHLIPEGGYNAIPQVYGDGWMIAGDAPIRHGIHREGSNLAMTTGMLAAQTLVELRAADKPFSAANLAEYKKKLDDSFVMKDLKKYRRMPEIFHKNKQFFTTYPDLLSRAAQTLIRVDGVDKKTKEKEIKKSFIGLRSLFGLIGDAFKFWRAVE

Test [1] addresses FixAB from Rhodospirillum rubrum (Rhodospirillum rubrum, UniProt Q6US86+Q6US87). The test is described as follows: transient absorption spectroscopy of bound flavin. The test is classed as binding. The conditions noted are these: FAD-reconstituted, as-isolated oxidized state; room temperature.
Test [2] has as its target B2. In words: co-purification.
The target in test [3] is T1, FixX subunit of the FixABCX complex from Azotobacter vinelandii (Azotobacter vinelandii, UniProt P53658 1-94).
T1 sequence (looked up): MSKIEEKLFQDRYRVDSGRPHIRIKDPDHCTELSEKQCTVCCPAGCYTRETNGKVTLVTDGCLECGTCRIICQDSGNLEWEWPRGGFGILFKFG
In words: co-purification.

The target of test [4] is B1. In words: co-purification.

As a reminder, the stoichiometry N is the number of molecules, sites or subunits per partner or assembly.

Consider `Cc1cc2nc3c(=O)[nH]c(=O)nc-3n(C[C@H](O)[C@H](O)[C@H](O)COP(=O)(O)OP(=O)(O)OC[C@H]3O[C@@H](n4cnc5c(N)ncnc54)[C@H](O)[C@@H]3O)c2cc1C` [FAD], for which the “transient absorption spectroscopy of bound flavin” value in test [1] is “two ASQ species can be formed in the FixAB unit, consistent with the presence of two flavins”.

On to B1, for which the “stoichiometry N” value in test [2] came out at 1.

With B2, the “stoichiometry N” value in test [3] is 1.

B3: FixA subunit of the FixABCX complex from Azotobacter vinelandii (natural protein, UniProt P53576 1-281, looked up)
chain: MHSVVCIKQLPDSAQIRVHPVTNTIMRQGVPAIINPYDLFALEEALRLKDKFGGTVTVVTMGPPMAEAALRKCLSFGADDAILVSDRAFAGSDTLATSYALSAVIRKIMEDMPVDLIFTGKQTIDGDTAQVGPGIAKRLDYQLLTYVSRIVDVDTAKKEIQVERRAEGGVQLLETSLPCLITMLEGTNEMRFGDLDDLFRAARHELKVWDRVAAGIDTVEMIGLKGSPTVVSKVFAPKPRSKRAELIESHDSDPKNLAEAALAKLFTQHPNLEQEIAKRAV
In the case of B3, the “stoichiometry N” value in test [4] turned out to be 1.
